Data taken from US20180051253.

Molecular target: T1, Nuclear Respiratory Factor 1 (NRF1), Q16656
T1 chain: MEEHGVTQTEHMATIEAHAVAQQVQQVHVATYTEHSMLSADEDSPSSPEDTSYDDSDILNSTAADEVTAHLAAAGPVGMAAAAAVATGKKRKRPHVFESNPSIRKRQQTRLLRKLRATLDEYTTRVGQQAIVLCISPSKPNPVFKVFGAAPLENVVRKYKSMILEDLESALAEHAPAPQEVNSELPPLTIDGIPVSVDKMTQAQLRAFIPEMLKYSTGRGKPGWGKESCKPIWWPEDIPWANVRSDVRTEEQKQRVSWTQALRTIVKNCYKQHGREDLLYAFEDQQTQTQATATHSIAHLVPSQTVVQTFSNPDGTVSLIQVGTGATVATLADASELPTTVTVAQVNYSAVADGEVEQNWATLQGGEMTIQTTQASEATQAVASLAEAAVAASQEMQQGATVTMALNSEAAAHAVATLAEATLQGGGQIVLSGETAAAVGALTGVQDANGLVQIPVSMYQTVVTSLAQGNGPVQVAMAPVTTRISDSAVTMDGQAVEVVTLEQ

B1: endogenous SIRT7 (protein)
chain: MAAGGLSRSERKAAERVRRLREEQQRERLRQVSRILRKAAAERSAEEGRLLAESADLVTELQGRSRRREGLKRRQEEVCDDPEELRGKVRELASAVRNAKYLVVYTGAGISTAASIPDYRGPNGVWTLLQKGRSVSAADLSEAEPTLTHMSITRLHEQKLVQHVVSQNCDGLHLRSGLPRTAISELHGNMYIEVCTSCVPNREYVRVFDVTERTALHRHQTGRTCHKCGTQLRDTIVHFGERGTLGQPLNWEAATEAASRADTILCLGSSLKVLKKYPRLWCMTKPPSRRPKLYIVNLQWTPKDDWAALKLHGKCDDVMRLLMAELGLEIPAYSRWQDPIFSLATPLRAGEEGSHSRKSLCRSREEAPPGDRGAPLSSAPILGGWFGRGCTKRTKRKKVT
  SIRT7 occupancy at gene promoters (ChIP-qPCR) after NRF1 siRNA: NRF1 knockdown (KD) using siRNA reduced SIRT7 occupancy at the promoters of mRPs and mTFs, but not RPS20
